In experiment [1] the target is T1, Human EphB4 Fc fusion (Human, UniProt P54760 16-539).
T1 construct: Bought Fc fusion; also called Sino Biologics 10235-H02H; not shown: Fc of the bought fusion
T1 sequence (looked up): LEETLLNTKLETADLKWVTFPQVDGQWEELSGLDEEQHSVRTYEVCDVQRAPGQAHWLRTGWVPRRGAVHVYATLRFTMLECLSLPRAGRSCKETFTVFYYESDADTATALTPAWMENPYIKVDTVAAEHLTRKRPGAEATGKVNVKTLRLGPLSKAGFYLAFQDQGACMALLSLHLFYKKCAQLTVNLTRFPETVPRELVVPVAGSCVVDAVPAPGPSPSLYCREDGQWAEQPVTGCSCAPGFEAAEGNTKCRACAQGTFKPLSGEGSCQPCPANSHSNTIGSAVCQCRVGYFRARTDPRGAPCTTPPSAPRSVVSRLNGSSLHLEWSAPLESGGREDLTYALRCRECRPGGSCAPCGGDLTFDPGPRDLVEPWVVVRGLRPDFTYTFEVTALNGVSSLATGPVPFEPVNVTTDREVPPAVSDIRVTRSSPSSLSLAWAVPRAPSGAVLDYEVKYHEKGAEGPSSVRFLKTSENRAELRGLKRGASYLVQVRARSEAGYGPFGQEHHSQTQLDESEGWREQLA
The experiment in a line: SPR, Fc-tagged protein captured by anti-human IgG.

Experiment [2] addresses T2, Human EphA3 Fc fusion (Human, UniProt P29320 21-541, limits assumed).
T2 construct: Bought Fc fusion; also called R&D Systems 6444-A3; not shown: Fc of the bought fusion
T2 sequence (looked up): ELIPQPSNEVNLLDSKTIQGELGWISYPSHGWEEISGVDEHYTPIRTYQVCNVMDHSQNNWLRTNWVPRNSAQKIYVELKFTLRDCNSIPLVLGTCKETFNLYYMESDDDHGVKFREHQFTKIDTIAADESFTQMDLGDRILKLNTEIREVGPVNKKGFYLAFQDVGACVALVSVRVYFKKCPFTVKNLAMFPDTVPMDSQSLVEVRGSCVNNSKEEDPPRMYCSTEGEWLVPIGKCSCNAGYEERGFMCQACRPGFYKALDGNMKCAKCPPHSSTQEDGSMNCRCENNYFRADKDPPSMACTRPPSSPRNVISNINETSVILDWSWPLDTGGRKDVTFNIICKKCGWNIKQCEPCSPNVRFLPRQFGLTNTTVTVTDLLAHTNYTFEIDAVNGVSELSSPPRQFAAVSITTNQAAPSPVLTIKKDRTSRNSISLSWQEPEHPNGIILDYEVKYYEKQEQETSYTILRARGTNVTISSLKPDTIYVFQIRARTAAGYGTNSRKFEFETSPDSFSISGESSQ
The experiment in a line: SPR, Fc-tagged protein captured by anti-human IgG.

The target in experiment [3] is T3, Human EphA7 Fc fusion (Human, UniProt Q15375 28-555, limits assumed).
T3 construct: Bought Fc fusion; also called R&D Systems 6756-A7; not shown: Fc of the bought fusion
T3 sequence (looked up): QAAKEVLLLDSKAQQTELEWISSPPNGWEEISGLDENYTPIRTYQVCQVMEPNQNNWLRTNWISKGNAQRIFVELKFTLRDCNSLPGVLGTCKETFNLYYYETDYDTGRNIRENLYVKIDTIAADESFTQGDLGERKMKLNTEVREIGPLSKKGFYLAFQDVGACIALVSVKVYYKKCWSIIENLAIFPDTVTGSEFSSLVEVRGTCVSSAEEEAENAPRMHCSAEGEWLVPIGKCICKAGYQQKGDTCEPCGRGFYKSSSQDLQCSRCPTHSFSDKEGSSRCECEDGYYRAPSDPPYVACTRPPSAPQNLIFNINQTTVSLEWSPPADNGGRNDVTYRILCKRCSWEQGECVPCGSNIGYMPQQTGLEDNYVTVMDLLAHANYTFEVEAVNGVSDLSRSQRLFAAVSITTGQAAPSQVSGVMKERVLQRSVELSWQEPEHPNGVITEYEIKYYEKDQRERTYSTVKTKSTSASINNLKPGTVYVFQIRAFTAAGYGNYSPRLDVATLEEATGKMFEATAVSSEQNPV
The experiment in a line: SPR, Fc-tagged protein captured by anti-human IgG.

Experiment [4] addresses T4, Human EphA4 Fc fusion (Human, UniProt P54764 20-547).
T4 construct: Bought Fc fusion; also called Sino Biologics 11314-H03H; not shown: Fc of the bought fusion
The experiment in a line: SPR, Fc-tagged protein captured by anti-human IgG.

The target of experiment [5] is T5, Human EphA6 Fc fusion (Human, UniProt Q9UF33 23-550, limits assumed).
T5 construct: Bought Fc fusion; also called R&D Systems 5606-A6; not shown: Fc of the bought fusion
T5 sequence (looked up): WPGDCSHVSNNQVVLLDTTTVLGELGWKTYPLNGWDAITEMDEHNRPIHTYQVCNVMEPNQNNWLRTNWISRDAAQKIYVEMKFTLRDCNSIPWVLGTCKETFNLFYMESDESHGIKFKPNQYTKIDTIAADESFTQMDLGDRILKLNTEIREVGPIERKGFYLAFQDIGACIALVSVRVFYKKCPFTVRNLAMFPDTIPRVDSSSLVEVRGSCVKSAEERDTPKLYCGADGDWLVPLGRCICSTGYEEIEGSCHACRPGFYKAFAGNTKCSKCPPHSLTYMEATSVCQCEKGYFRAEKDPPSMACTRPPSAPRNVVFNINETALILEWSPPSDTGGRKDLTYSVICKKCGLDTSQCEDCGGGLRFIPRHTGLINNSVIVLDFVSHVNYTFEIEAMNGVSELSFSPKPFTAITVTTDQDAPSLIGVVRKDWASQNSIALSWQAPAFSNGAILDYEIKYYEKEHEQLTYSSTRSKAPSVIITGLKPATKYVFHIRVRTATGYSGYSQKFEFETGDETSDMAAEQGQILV
Nature of the experiment: SPR, Fc-tagged protein captured by anti-human IgG.

The target in experiment [6] is T6, Mouse EphA2 Fc fusion (Mouse, UniProt Q03145 26-535, limits assumed).
T6 construct: Bought Fc fusion; also called R&D Systems 639-A2; not shown: Fc of the bought fusion
The experiment in a line: SPR, Fc-tagged EphA2 captured by anti-human IgG.

T6 sequence (Q03145 26-535 limits assumed): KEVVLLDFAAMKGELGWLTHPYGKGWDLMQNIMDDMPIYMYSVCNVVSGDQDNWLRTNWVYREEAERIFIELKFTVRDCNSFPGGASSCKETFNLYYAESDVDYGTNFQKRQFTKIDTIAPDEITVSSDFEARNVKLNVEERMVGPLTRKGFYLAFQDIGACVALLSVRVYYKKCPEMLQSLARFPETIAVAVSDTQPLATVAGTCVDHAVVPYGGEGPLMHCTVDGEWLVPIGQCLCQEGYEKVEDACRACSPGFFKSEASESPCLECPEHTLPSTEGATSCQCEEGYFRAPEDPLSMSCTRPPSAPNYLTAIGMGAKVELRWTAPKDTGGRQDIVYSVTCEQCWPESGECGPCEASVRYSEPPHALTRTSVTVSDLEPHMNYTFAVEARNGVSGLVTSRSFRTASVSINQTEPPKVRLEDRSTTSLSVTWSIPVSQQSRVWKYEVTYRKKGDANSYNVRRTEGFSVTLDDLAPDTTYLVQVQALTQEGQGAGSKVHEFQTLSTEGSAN
T4 sequence (P54764 20-547 limits assumed): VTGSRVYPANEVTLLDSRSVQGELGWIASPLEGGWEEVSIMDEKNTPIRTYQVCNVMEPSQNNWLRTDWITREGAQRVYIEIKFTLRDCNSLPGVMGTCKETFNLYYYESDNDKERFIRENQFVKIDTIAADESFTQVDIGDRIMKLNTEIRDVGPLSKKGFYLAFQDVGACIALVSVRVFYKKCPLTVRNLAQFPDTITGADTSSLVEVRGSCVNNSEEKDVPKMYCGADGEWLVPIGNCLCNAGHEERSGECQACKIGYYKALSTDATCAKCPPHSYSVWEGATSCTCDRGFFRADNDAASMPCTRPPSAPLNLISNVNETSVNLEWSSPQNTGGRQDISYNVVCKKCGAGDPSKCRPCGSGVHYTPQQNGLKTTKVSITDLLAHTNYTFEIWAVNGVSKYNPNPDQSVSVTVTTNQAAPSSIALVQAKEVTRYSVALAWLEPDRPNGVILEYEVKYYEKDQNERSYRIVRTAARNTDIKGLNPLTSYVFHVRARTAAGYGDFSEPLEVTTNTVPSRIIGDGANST

B1: BCY6082 (peptide)
peptide: AXDCPLVNPLCLHPGWTC
modifications: not fully specified; N-terminal (β-Ala)-Sar10 spacer precedes SEQ ID NO: 11; HArg (homoarginine) at residue 2 of SEQ ID NO: 11; three Cys cyclised on the TATA scaffold; DM1-SS(SO3H)- (DM1-SO3H-SPDB) on the N-terminal amine
Take B1: the binding result in experiment [1] is “no binding (tested: 20 µM)”; in experiment [2], “no binding (tested: 5 µM)”; in experiment [3], “no binding (tested: 20 µM)”; in experiment [4], “no binding (tested: 5 µM)”; in experiment [5] it was “no binding (tested: 20 µM)”. In experiment [6], the Kd was 18.3 nM. The molecule also gave a t1/2 in experiment [6] of 1.9 min.

B2: BCY6033 (peptide)
peptide: AXDCPLVNPLCLHPGWTC
modifications: not fully specified; N-terminal (β-Ala)-Sar10 spacer precedes SEQ ID NO: 11; HArg (homoarginine) at residue 2 of SEQ ID NO: 11; three Cys cyclised on the TATA scaffold; ValCit-MMAE (MMAE-PABC-Cit-Val-glutarate) on the N-terminal amine
In the case of B2, the binding result in experiment [1] was “no binding (tested: 20 µM)”; in experiment [2], “no binding (tested: 5 µM)”; in experiment [3] it was “no binding (tested: 20 µM)”; in experiment [4] it was “no binding (tested: 5 µM)”; in experiment [5], “no binding (tested: 20 µM)”. Also, in experiment [6], the Kd turned out to be 21.8 nM. The t1/2 in experiment [6] amounted to 1.8 min.

The values are drawn from US20240000957A1 (published 2024).
